Literature values in publication PMC293425.

Molecular target: relaxin receptor LGR7 (Homo sapiens) (UniProt Q9HBX9)
Chain of UniProt Q9HBX9 (Q9HBX9 whole entry): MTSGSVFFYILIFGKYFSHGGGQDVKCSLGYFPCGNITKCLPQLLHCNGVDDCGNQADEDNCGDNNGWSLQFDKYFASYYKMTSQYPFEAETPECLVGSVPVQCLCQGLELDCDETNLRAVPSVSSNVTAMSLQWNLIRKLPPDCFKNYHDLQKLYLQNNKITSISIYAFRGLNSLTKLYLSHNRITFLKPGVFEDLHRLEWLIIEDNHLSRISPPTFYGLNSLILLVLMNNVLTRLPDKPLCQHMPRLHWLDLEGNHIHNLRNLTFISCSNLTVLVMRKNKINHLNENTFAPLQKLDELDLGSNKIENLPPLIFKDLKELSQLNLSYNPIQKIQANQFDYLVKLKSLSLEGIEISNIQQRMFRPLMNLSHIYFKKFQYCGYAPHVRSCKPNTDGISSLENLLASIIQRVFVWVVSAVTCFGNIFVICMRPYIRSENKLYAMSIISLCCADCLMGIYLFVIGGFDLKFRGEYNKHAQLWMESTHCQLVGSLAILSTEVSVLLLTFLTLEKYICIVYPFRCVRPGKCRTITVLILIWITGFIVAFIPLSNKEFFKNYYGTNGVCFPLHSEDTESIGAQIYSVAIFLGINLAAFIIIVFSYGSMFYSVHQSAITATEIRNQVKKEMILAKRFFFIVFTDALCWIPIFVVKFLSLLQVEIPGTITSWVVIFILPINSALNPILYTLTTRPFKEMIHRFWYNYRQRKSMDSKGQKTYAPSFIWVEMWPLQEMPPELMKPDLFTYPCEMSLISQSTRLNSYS

Chain of relaxin (P04090 162-185): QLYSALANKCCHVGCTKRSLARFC

relaxin (from UniProt P04090)
Kd: 1 nM
